# From the nanobody polyreactivity screen of Harvey et al. (2022)
# Experiment: yeast display, Sf9 membrane polyspecificity reagent, FACS + sequencing; frameworks hold sequencing errors
# Summary of the method: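 Polyreactivity labels are assigned by the sorting gate from which each nanobody was recovered. The gates were low and high (top ~1%), set on anti-HA fluorescence for expression and streptavidin fluorescence for reagent binding. Before sorting, galactose-induced (36–48 hours) yeast display cells were stained for 1 hour at 4 °C with 10% biotinylated, detergent-solubilized Sf9 membrane reagent.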
row,Sequence,polyreactivity (PSR sort gate)
1,QVQVVESGGGLVQAGGSLRLRCAASGSIIKYYAMGWYREAPGKERELVADISWRGGRTYADSVKGRFTISRDNAKNTVYLQMNCLIPEDTAVYYCAKPSKARGGYDYWGQGTQVTVSS,high polyreactivity
2,QVQVVESGGGLVQAGGSLRLSCAASGFTFDYYNMGWYRQAPGKERELVAAITSGASTNYADSVKGRFTISRDNAKNTVYLQMNSLKPEDTAVYYCAAVLAGGVYWVVHYDYWGQGTQVSVSS,low polyreactivity
3,QVQVVESGGGLVQAGGSLRLSCAASGFTFSFNAMGSYRQAPWKERELVAAIDRGVSTYYADSVKGRFTISRDNAKNTVYLQMKSLKPEDTAVSYCAVEYWEPYDMDYWGQGTQVTVSS,high polyreactivity
4,QVQVVESGGGLVQAGGSLRLSCAASGGTFSPYDMGWYRQAPGKERELVASITRSGGSTYYADSVKGRFTISRGNSKNTVYLQMNSLKPEDTAVYYCAAQGYWTYWPYLLRLYDYWGQGTQVTVSS,low polyreactivity
5,QVQVVESGGGLVQAGGSLRLSCAASGITFWGYAMGWYRQAPGKERELVAAITRTGSTYYADSVKGRFTISRDNAKNTVYLQMNSLKPEDTALYYCAAYTPNASTYRRKSSKKVYYWGQGTQVTVSS,high polyreactivity
6,QVQVVESGGGLVQAGGSLRLSCAASGRTFFRNAMGWYRQARGKERELVAAISKRGGSTRYADSVKGRFTISRDQAQNPDYLQMNSLKPEDTAVYYCAAASRLEYSHATLYYWGQGTQVTVSS,high polyreactivity
7,QVQVVESGGGLVQAGGSLRLSCAASGRTFGGYDMGWYRQAPGKERELVAAISWSGGNTYYADSVKGRFTISRDNAKNTVYLQMNSLKPEDTAVYYCAAGHYVYWYRYQLGRYNYWGQGTQVTVSS,high polyreactivity
8,QVQVVESGGGLVQAGGSLRLSCAASGRTFYGNAMGWYRQAPGKERELVASITSRGDNTYYADSVKGRFTISRDNAKNTVYFQMNSLKPEDTAVYYCAAGTVYYTYLWMGYWGQGTQVTVSS,low polyreactivity
9,QVQVVESGGGLVQAGGSLRLSCAASGRTSGNYAMGWYRQAPGKERELVAAIRYSGSSTFYADSVKGRFTISRDNAKHTVYLQMNSLKPEDTAVYYCARDIRRKGFRYDYWGQGTQVTVSS,high polyreactivity
10,QVQVVESGGGLVQAGGSLRLSCAASGSIFGANTMGWYRPAPGKERELVAAISSGGNTYYADSVKGRFTISRDNAKNTVYLQMNSLKPEDTAVYYCNAQTRYLYQYGYLGGTGYNYWGQGTQVTVSS,low polyreactivity
11,QVQVVESGGGLVQAGGSLRLSCAASGSIFSSYAMGWYRQAPGKERELVAAITGSGGSTDYADSVKGRFTISRDNAKNTVYLQMNSLKPEDTAVYYCAARRFWPGNSYYYRYYYWGQGTQVTVSS,low polyreactivity
12,QVQVVESGGGLVQAGGSLRLSCAASGSIFVGYAMGWYRQAPGKEREFVAGITARGGSTYYADSVKGRFTISCDNAKNTVYIPMNSQKPEDSAVYYCAADDGSENDYWGQGTQVTVSS,low polyreactivity
13,QVQVVESGGGLVQAGGSLRLSCAASGSTFPGNAMGWYRQAPGKERDLVAAITSTGTTYYADSVKGRFTISRDNAKNTVYLQMNSLKPEDTAVYYWNADPSPDPSTFDYWGQGTLVTVSS,low polyreactivity
14,QVQVVESGGGLVQAGGSLRLSCAASGSTFRYYAMGWYRQAAGKERELVASITVSVGRTYYADSVKGRFTISRDYAKNTVYLQMNILKPEDTAVYYCAAPRGRLVRPPKYYYWGQGTQLTVSS,high polyreactivity
15,QVQVVESGGGLVQAGGSLRLSCAASGSTFTIYAMGWYRQAPGKERELVALITWSGGSTYYADSVKGRFTISRDNAKNTVYLQMNSLKPEDTAVYYCAADYYRPVPGGYYWGQGTQVTVSS,high polyreactivity
16,QVQVVESGGGLVQAGGSLRLSCAASGSTFYSNAMGWYSQAAGQERELVAAITWSDGSTYYADSVMGRFTISRDNAKHTVYVQMNSHKPEDTALYYCSATQAEVVWTPVYVEYDYWGQGTQVTVSS,high polyreactivity

row,Sequence,polyreactivity (PSR sort gate)
1,QVQVVESGGGLVQAGGSLRLSCAPSGRTFYGNVMGWYRQAPGKERELVAAISSRGSSTRYADSVKGRFTISRDNAKNTVYLQMNRLKPEDTAVYYCAARNEYWGQGTQVTVSS,high polyreactivity
2,QVQVVESGGGLVQAGGSLRLTCAASGRTFINYAIGRYRQPAAKERELVAAITPGGRTNYADSVKGRFTNSRDNAKYTVYLQMNSVTPEDTAVYYCAADRYYWGRYTLNYWGQGTQVTVSS,low polyreactivity
3,QVQVVESWGGLVQEAGSLRLSCAASGRTFAHYNMGSYRQAPGKERELVARIDWSCGNTYYADSVKGRFTISRDNAKITVFLQMNRLKPQDTAVYYCAAVPAFYNAWGEDYEYWGQGTHVTVSS,low polyreactivity
4,QVRLVESGGGLVQAGCSLRLSCAASGSTFWSYAMGWYRQAPGKERELVAAISWSGDSTYYADSVKGRFTISRDNAKNTVYLQMNSLKPEDSAVYYCAADYTGSFYTYDYWGQGTQVTVSS,low polyreactivity
5,QVRLVESGGGLVQAGGSLRLSCAASARILPYYPMGWYRQAPGKERELVAAISWSGGRTYYADSVKGRFTISRDNAKNTVYLQMNSLKPEDTAVYYWATRRVTHVPGSSRYDYWGQGTQVTVSS,low polyreactivity
6,QVRLVESGGGLVQAGGSLRLSCAASGRIFQYYAMGWYRQAPGKERELVASITSGGGSTYYADSVKGRFTISRDNAKNTVYLQMNSLKPEDTAVYYCNARWYGLSTRYDYWGQGTQVTVSS,low polyreactivity
7,QVRLVESGGGLVQAGGSLRLSCAASGRTFTHNVMGWYRQAPGKERELVAGISSTGGSTYYADSVKVRFTISRDNAKNTVYLQMNSRKPEDPAVYYCNADYASYYRYSRPLEMNYWGQGTQVTVSS,low polyreactivity
8,QVRLVESGGGLVQAGGSLRLSCAASGSTFYPYDMGWYRQAPGKERELVATISSGVSTNYADSVKGRFTISRDNAKNTVYLQMNSLKPEDTAVYYCAVDYFIGDDDYWGQGTQVTVSS,low polyreactivity
9,QVTLVESGGGLVQAGGSLRLSCAASGSIRGYALGWSRQPPGKDRALVAAMSWRGGSTYYADSVKGRFTISRDNAKNTVYLQMNSLKPEETAVYYCAVEYVYWLSWYFQYDYWGQGTQVTVSS,low polyreactivity
10,QYQLVESGGGLVHEGGSLSLRCAASGSNLYYYAMGWYRKAPGKERDLDAAITYSGGNTYYADSVKGRFTISRDNAKNNVYLQMNSLKPEDTAVYYCAADDWSSDYIRYEYWGQGTQVTVSS,low polyreactivity
11,RVHLVESGGGLVQAGGSLRLSCAASGRIFDNYVMGWYRQAPGKESELVAAISSGGGTYYADSVKGRFTISRDNAKNTVYLQMKSLKPEDTAVYFCAKRRVFDRSFGRYDYWGQGTQVTVSS,low polyreactivity
12,RVQLVESGGGLVQAGGSLRLSCAASGRIFSYKAMGWYRQAPGKERELVAAITFSGGGTYYADSVKGRFTISRDNAKNPVYLQMNSLKPEDTAVYYCNKVSYGYSSYGYWGQGTQVTVSS,low polyreactivity
13,RVQLVESGGGLVQAGGSLRLSCAASGRTFVNYAMGWYRQAPGKEREFVAAITNGGRTNYADSVKGRFTISRDNAKNTVYLQMNSLQPEETEVYYCAARYRFGGIRRYNYWGQGTQVTVSS,high polyreactivity
14,RVQLVESGGGLVQAGGSLRLSCAASGSTFENYAMGWYRQAPGKERELVAAISSGGSTYYADSVKGRFTISRDNAKNTVYLQMNSLKPEDTAVYYCAAELEYWLYGYGYYYWGQGTQVTVSS,high polyreactivity
15,RYADSVKGRFTISRDNAKNTDYLQMNSLKPEDTAVYYCAAKGPEPPSLDESDYWGQVTQVTVSS,low polyreactivity
